Results reported in publication PMC4492466.

Biological target: Cdh1 (UniProt Q9R1K5)
Test: Flag IP of Cdh1, HA-FMRP blot
Details: reference: wild type FMRP; sites S499

FMRP (from UniProt P35922) S499A
binding against the reference: stronger
